{"source": "paper doi:10.1101/2021.04.12.439405", "about": "(bioRxiv, 2021)", "binders": {"B1": {"name": "His-MukF (natural protein, E. coli, UniProt P60293 1-440, looked up)", "chain": "MSEFSQTVPELVAWARKNDFSISLPVDRLSFLLAVATLNGERLDGEMSEGELVDAFRHVSDAFEQTSETIGVRANNAINDMVRQRLLNRFTSEQAEGNAIYRLTPLGIGITDYYIRQREFSTLRLSMQLSIVAGELKRAADAAEEGGDEFHWHRNVYAPLKYSVAEIFDSIDLTQRLMDEQQQQVKDDIAQLLNKDWRAAISSCELLLSETSGTLRELQDTLEAAGDKLQANLLRIQDATMTHDDLHFVDRLVFDLQSKLDRIISWGQQSIDLWIGYDRHVHKFIRTAIDMDKNRVFAQRLRQSVQTYFDEPWALTYANADRLLDMRDEEMALRDEEVTGELPEDLEYEEFNEIREQLAAIIEEQLAVYKTRQVPLDLGLVVREYLSQYPRARHFDVARIVIDQAVRLGVAQADFTGLPAKWQPINDYGAKVQAHVIDKY"}}, "key": {"[1]": {"target": "T1, MukB-His (wild type MukB) (E. coli, UniProt P22523 1-1486)", "T1 sequence (looked up)": "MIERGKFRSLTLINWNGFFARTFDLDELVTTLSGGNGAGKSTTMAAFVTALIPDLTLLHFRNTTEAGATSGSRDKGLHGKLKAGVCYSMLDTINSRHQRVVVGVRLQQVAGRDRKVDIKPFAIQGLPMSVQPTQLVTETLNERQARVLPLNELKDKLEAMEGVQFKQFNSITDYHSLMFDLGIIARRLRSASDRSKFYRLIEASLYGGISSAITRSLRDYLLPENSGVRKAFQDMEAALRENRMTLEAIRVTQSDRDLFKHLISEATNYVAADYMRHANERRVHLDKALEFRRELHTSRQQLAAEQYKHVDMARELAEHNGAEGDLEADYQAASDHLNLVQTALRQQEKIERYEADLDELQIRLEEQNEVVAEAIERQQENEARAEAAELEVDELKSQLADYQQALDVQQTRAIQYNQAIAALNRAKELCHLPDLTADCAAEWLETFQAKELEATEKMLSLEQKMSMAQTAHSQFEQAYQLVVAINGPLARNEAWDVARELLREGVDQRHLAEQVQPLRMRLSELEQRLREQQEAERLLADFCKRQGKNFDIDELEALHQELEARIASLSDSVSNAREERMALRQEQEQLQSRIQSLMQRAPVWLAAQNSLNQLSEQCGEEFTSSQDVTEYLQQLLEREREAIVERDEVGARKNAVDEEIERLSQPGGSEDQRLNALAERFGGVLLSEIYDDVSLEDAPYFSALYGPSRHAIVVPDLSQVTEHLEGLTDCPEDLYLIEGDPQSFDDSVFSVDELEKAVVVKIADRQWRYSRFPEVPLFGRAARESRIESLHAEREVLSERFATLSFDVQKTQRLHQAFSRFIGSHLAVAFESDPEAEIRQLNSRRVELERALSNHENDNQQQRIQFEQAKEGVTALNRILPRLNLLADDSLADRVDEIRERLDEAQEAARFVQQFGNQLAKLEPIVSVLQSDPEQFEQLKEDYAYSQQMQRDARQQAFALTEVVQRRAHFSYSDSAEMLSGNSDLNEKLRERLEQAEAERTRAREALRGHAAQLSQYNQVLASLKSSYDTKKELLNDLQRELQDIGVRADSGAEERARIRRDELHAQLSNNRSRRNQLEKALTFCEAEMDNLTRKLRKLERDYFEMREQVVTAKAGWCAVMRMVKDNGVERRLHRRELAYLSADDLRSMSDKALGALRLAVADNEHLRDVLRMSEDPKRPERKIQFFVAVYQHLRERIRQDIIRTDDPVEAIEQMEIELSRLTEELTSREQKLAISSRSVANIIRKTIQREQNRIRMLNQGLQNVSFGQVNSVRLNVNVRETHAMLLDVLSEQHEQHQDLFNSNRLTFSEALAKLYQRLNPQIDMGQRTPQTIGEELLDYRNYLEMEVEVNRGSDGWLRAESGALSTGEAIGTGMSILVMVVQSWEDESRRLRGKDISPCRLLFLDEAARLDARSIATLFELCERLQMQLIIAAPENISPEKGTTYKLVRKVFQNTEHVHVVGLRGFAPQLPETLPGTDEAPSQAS", "assay": "native MS"}, "native MS": {"target": "the molecule itself", "assay": "native MS"}}, "data": [{"binder": "B1", "values": [{"measurement": "binding result", "setting": "[1]", "result": "binds"}, {"measurement": "binding result", "setting": "native MS", "result": "binds"}]}]}
